{"source": "the DeepSol protein solubility set", "data": [{"assay": "soluble on expression in E. coli; label from the status in PepcDB or PDB records", "values": [{"sequence": "MDEDTRLSRYLYLTDREHINVDSIKQLCKISDPNACYRCGCTALHEYFYNYRSVNGKYKYRYNGYYQYYSSSDYENYNEYYYDDYDRTGMNSESDNISIKTEYENEYEFYDETQDQSTQLVDYDIKLKTNEDDFVDEFYGYDRSVGVHDYIDVSINKVVYGRESHVRWRDIWQEHNDGVYSIGKECIDNIYEDRHTVDEFYKIDSVSDVDDAEHISQITNDVSTQTWEKKSELDRYMEMYPRHRYGKHSVFKGFSDKVRKNDLDMNVVKELLSNGASLTIKDSSNKDPIAVYFRRTIMNLEMIDIINKHTTIYERRYIVHSYLKNYRNFDYPFFRKLVLTNKHCLNNYYNISDSKYGTPLHILASNKKIITPNYMKLLVYNGNDINARGEDTQMRTPLHKYLCKFVYHNIEYGIRYYNEKIIDAFIELGADLTIPNDDGMIPVVYCIHSNAEYGYNNITNIKIIRKLLNLSRHASHNLFRDRVMHDYISNTYIDLECLDIIRSLDGYDINCYFEGRTPLHCAIQYNFTQIAEYLLDRGADISLKTDDGKTVFDLSLCSYIPLKWTSFLISRLPPKSVICSLTNHIIDYVLTNNRRIIWQSQMINKYVLLLDPSFYYRFRNAIENKLDQYNNRYNMFEHDRDVNEKYGKVLHDLDTYIKDVQVLKSTSITNNITLYDTIINNKSEFPIRRANDKQLINLIKSNTYHNLIEKVIKNTLEKYTLTNIVLEYMISSQSQSQSSYLSRIPNEILLEILYKLDMYDLRNLYTRYMRENDITEYHIENTRSVSTQT", "soluble on expression in E. coli": "not soluble"}, {"sequence": "MDEEASRTARESLELVFRMSNILDTGLDRHTLSVLIALCDLGVNPEALATVVKELRRESIPDSVTTTPSIH", "soluble on expression in E. coli": "soluble"}, {"sequence": "MDEKKLFENFQLTFGRMISPFEIEDIQKWIHEDNMPIEVVNLALREAVENNKISWKYINKILVDWYKSGDTTVEKVRDRLQRFDDSKKQRSVTTSNVPSWSNPDYKEPDLEEFALGSMDGIEDGSGDF", "soluble on expression in E. coli": "not soluble"}, {"sequence": "MDEQAVSTSMKTVYIRIYTSVLYTSYTKPGNWSAVDRSAWSVSCSNVYADDDAKYGAHLAIDGEINTTWFTWGVANAGECWWNTVLDRPVTLTGFSVTKQSAYGSGYNLRSAEIKVRKEGETEWVTYPRVLTFRNFKGADPQYAAIEPPIPNVKEFRINCLTPDNYTGFAEINLYVKQLEHHHHHH", "soluble on expression in E. coli": "soluble"}, {"sequence": "MDEQVIKKVVEDVLKKVGIEQKEENKANRGEPVITNPGLTEFVGTALGDTIGLVIANVDASLHEKMGIDPKYRSIGIIGGRTGAGPQIMAADEAVKATNTEVVAIELPRDTKGGAGHGNLIIFGAEEVSDARRAVEVALKELRRTFGDVYVNEAGHLEFQYTARASYALQKAFGAPLGKAFGLIVGAPAAIGVLCCDTAVKAAEVEVIGYASPAKGTSMTNEAILFISGDSGAVRQAIIAAREVGLKLLSTLGEAPKSLSGEPYI", "soluble on expression in E. coli": "not soluble"}, {"sequence": "MDERTELLKRIEELEEKLRQCQQREQELEALIEEYNEVMKKQFQVFDDFFEKLGTTKMIDPLTRVYAKDHFLRLLSYQHQRAFEENTPYTIFFVKTKVSKNEREKALMKIGKILKECVRVPLDSVGRYSDDTFALFVIGVGKETAPNIEERIKNHIESIGGIEYSIAYKSYPEDFMDLEKAILDLEKAVA", "soluble on expression in E. coli": "not soluble"}, {"sequence": "MDFKQYSPEELKECSMIEVVHSVLGDKKQATTFNELVQEIAQVLGLSQEQVNAKIAQFYTDLNIDGRFINLGENRWGLRSWYPYEQIDEEILPQPKPKKKRKVEEDGFDDYIDEDEDDFDDVDGNEDEDDDVEDLDKVLEDEDGDDDDLDDLDEDEDDFAEEELEYDETEEEEEEEL", "soluble on expression in E. coli": "not soluble"}, {"sequence": "MDGGFVRVCLLASGSKGNSLFVESDGTRVLIDAGLSAREIVRRLAVIEVEPADLDGLFISHEHVDHVRGVGVLARKYRLPVHVSYPTHHEVREGFGDAPVVEFESGYSFGFRDLLIDPFPITHDACDPVGFTIESKEGKVGIATDLGTATRLVADKLKRCRVLVLESNHDEEMLMGGPYPWHLKQRIKSRHGHLSNNDSAALLAEVLHPGLEGLFLAHLSEVNNDPAVAKEVAENLLVAQTTCSPRLIVGDQYRPSETLTLLEHHHHHH", "soluble on expression in E. coli": "soluble"}, {"sequence": "MDGLDYFEPNPDYRVAATVEVDDSDETITMETTAEGERLYERVARLTFEVPDASDNRDEHTLVAYQRVDQRGDGSLFVPFRDKTTGQQTYPAGRYMELHYEGDLEDGATVPLDFNLAYNPFCAYSDAYECPLPPQENWLEIVVPAGERDDQLEHHHHHH", "soluble on expression in E. coli": "soluble"}]}]}
